From article PMC4454452 (The Biochemical journal, 2014)

Key:
[1] = test system: H3K4me3, H3K9me3 and H3K27me3; conditions: previously demonstrated; cited from earlier work
[2] = molecular target: GST-fusion CHD4 PHD2 (Homo sapiens, UniProt Q14839); test: Pull-down of GST-CHD4 PHD2 by biotinylated histone peptides in the absence of 2; assay type: binding; conditions: absence of 2, Western blot
[3] = molecular target: CHD4 PHD2 finger (Homo sapiens, UniProt Q14839); conditions: read-out: Kd of CHD4 PHD2 for histone peptide; cited from earlier work
Chain of CHD4 PHD2 finger (Q14839 449-496 limits assumed): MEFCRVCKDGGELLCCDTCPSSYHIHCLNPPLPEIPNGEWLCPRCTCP

Chain of GST-fusion CHD4 PHD2 (Q14839 449-496 limits assumed): as above

Compound | binding to trimethylated lysine peptides H3K4me3, H3K9me3 and H3K27me3 [1] | binding of GST–CHD4 PHD2 to biotinylated histone peptide [2] | Kd [3] [µM]
O=S(=O)(O)c1cc2c(O)c(c1)Cc1cc(S(=O)(=O)O)cc(c1O)Cc1cc(S(=O)(=O)O)cc(c1O)Cc1cc(S(=O)(=O)O)cc(c1O)C2 [Compound 1, p-sulfonatocalix[4]arene] | equally well |  | 
H3K27me3: biotinylated histone H3 peptide (residues 21–44) trimethylated at Lys27 [Compound H3K27me3] |  | no interaction | 
H3K4me3: biotinylated histone H3 peptide (residues 1–20) trimethylated at Lys4 [Compound H3K4me3] |  | significantly weaker | ~2000
